# Laboratory results reported in US20220313789A1, “TARGETING MELANOCORTIN 3 RECEPTOR FOR TREATMENT/PREVENTION OF EATING, METABOLISM, AND/OR EMOTIONAL DISORDERS” (The Regents of the University of Michigan, priority 2019, published 2022).
# “Also recorded” adds a separate entry of the source. Bridge positions count the residues as written; N and C are the ends. Square brackets hold non-standard residues; d marks the D form. d2Nal = N[C@H](Cc1ccc2ccccc2c1)C(=O)O; Nle = CCCC[C@H](N)C(=O)O
# How the values were obtained:
# MC3R KO mice = assay: Feeding after i.c.v. administration in MC3R KO mice; assay type: in vivo
# Experimental: FIG. 13. […] Data shown as mean+/−s.e.m. Panels A and B analyzed with Student's paired t-test. n=9 mice for panels A and B.
# B: 24-hour food intake following administration of vehicle (aCSF) or C18 to WT mice. […] C: Change in BW following injection of vehicle or C18 (5 ug). D and E: Cumulative food intake (D) and 24-hour food intake (E) following C18 or vehicle administration in MC3R KO mice. […] F: Cumulative food intake following administration of the MC3R antagonist C11 or vehicle. […] G: 24-hour food intake in WT mice following administration of C11. H: Change in BW following injection of vehicle or C11 (5 ug). I and J: Food intake following i.c.v. injection of vehicle (DMSO, 500 nl) or C11 (5 ug, 500 nl) in MC3R KO mice. […] Data represents mean+/−s.e.m. […] Panels B, C, G, H, and J analyzed with unpaired Student's t-test. n=7 mice and n=8 mice for vehicle and C18 groups in panels A-C. n=19 mice for panels F and G. n=6 mice for vehicle and n=8 mice for C11 group in panel H. n=12 mice for vehicle and C18 group in panels D and E. n=8 mice for vehicle and C11 groups in panels I and J.
# (§1) For central administration of MC3R agonist compounds we first administered vehicle injections (500 nl DMSO) for 2-4 consecutive days to habituate mice to handling and injection. […] Body weight was measured daily immediately prior to injections.
# AgRP neurons = assay: Feeding after MC3R agonist with chemogenetic (hM4Di) inhibition of AgRP neurons; assay type: in vivo, mice
# Experimental: FIG. 7. […] Either saline or CNO (1 mg/kg, i.p.) was administered fifteen minutes prior to i.c.v. injections. […] Data represented as mean+/−s.e.m.
# A and B: Schematic of experimental strategy to express inhibitory DREADD virus in hypothalamic AgRP neurons (A) and representative image of DREADD transduced AgRP neurons (B). Scale bar, 200 um. C: Food intake following administration of C18 in the presence of saline or CNO (0.1 mg/kg, i.p.). […] D: RNAscope analysis of MC3R expression in WT and AgRP-MC3R KI mice. […] Scale bar, 500 um.
# To inhibit AgRP neurons, the arcuate nucleus of AgRP-Cre mice was targeted with stereotaxic viral injections of Cre-dependent AAV viral vectors expressing the chemogenetic inhibitor hM4Di (FIG. 7).
# MC3R [1] = biological target: T1, MC3R (Mus musculus, UniProt P33033); assay: Elevated plus maze; assay type: in vivo, mice; settings: 5 ug, i.c.v., elevated plus maze
# T1 construct: from tissue; host or cells: living mice (C57/BL6J background), central nervous system / hypothalamus
# T1 sequence (P33033 whole entry): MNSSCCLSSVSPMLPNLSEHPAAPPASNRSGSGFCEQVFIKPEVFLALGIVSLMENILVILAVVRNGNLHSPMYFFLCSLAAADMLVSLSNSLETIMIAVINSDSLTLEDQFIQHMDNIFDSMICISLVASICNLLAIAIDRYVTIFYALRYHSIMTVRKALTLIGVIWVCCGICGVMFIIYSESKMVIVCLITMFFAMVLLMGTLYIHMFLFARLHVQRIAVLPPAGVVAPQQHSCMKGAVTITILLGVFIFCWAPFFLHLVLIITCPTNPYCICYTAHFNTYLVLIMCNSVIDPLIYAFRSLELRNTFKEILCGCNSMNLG
# Experimental: (§2) Anxiety behavioral assays were performed in the following order with 2-4 days separated between each anxiety assay: elevated plus maze, open field test, novelty suppressed feeding test. Behavioral assays were performed during the light cycle between 10 am-5 pm. Open field and elevated plus maze testing was performed in ad libitum fed mice with one exception.
# To perform elevated plus maze tests mice were initially placed into the closed arm of the elevated plus maze arena. The arena consisted of 2 50 cm long arms. One arm was enclosed by walls while the other arm was open. Activity in the maze was recorded for five minutes using animal tracking software (ANYmaze, Stoelting). Latency to enter the open arms, total distance traveled, entries to open arms, time in open arms, and distance traveled in the open arms was automatically calculated using tracking software. Treatment schedules for the elevated plus maze were identical to those described for the open field test.
# MC3R [2] = biological target: T1, MC3R; assay: Novelty suppressed feeding test; assay type: in vivo, mice; settings: i.c.v., NSF test
# Experimental: as §2
# Prior to testing, mice were fasted overnight (6 pm-10 am). NSF testing was performed in the open field arena described above. Briefly, a single pellet of food (3-4 grams) was placed in the center of the open field. Mice were placed in the corner of the open field and their activity was automatically scored for ten minutes using animal tracking software. Latency to eat the food was manually recorded during testing. Feeding was scored as five consecutive seconds of chewing on the food.
# MC3R [3] = biological target: T1, MC3R; assay: MC3R agonist feeding assays (food intake, body weight) in WT mice; assay type: in vivo
# Experimental: Clozapine-N-Oxide (CNO) was purchased from Enzo Life Sciences. On the day of experiments fresh stock CNO (1 mg/0.1 ml) was prepared in water. CNO was administered via i.p. injections (200 ul Saline; 1 mg/kg). […] (5 ug; 500 nl DMSO).
# Behavioral assays were performed on ad libitum fed mice. Mice were single caged for at least one week prior to starting feeding assays. Feeding assays were performed during the light period.
# For peripheral administration of MC3R agonist compounds, mice were first habituated to vehicle injections (i.p.; saline in 10% DMSO; 200 ul) for 2-4 consecutive days. Following habituation and consecutive days of stable food intake in response to vehicle injections, agonist compounds were administered (i.p.; 10 mg/kg; saline in 10% DMSO). Food intake was measured following drug or vehicle administration by carefully removing food from the food hopper and weighing on a scale. Cages were changed daily during acute feeding assays to prevent spillage of food from the food hopper.
# as §1
# MC3R [4] = biological target: T1, MC3R; assay: Open field test; assay type: in vivo, mice
# Experimental: as §2
# Open field tests were performed as previously described (Refs. 55-57; herein incorporated by reference in their entireties). Mice were placed in the corner of a 50 cm×50 cm open field chamber. The center of the arena was marked as the 25 cm×25 cm area in the center of the open field. Exploratory activity was recorded for five minutes using ANYmaze software (Stoelting). Entries to the center, time in the center, distance in the center, and total distance traveled were automatically recorded with video tracking software. For PG992 experiments, mice were randomly assigned to receive either vehicle or PG992 injections. One week later the order of treatments was reversed such that each mouse received both vehicle and PG992 treatment in random order. For DREADD mediated assays, mice were administered CNO on the day of testing. Differences in open field activity between DREADD transduced mice and WT littermates were compared on testing day in response to CNO treatment. Similarly, MC3R KO and WT mice were testing in the open field on the same day in random order and differences in exploratory activity were calculated as previously described.
# [5] = i.c.v. 5 ug in 500 nl DMSO vs vehicle
substance,measurement,setting,value
Ac-Nle-c[Asp-Trp-Pro-DNal(2′)-Arg-Trp-Lys]-NH2 (Ac-[Nle]DWP[d2Nal]RWK-NH2; lactam 2-8) [PG992],24-hour food intake,MC3R KO mice; [5],No significant difference in 24-hour food intake
same,Acute food intake,MC3R KO mice; [5],No significant difference in food intake
same,body weight,MC3R KO mice; icv,no activity on food intake or body weight
same,food intake,MC3R KO mice; icv,no activity on food intake or body weight; also recorded: No effect on food intake
same,PG992 induced stimulation of food intake under AgRP neuron inhibition,"AgRP neurons; CNO (1 mg/kg, i.p.) before PG992 5 ug i.c.v., hM4Di in AgRP neurons",significantly reduced the ability of PG992 to stimulate feeding; also recorded: significantly reduced in the presence of AgRP neuron inhibition
same,"4-hour, 8-hour and 24-hour food intake","AgRP neurons; PG992 5 ug i.c.v., saline or CNO (1 mg/kg, i.p.) fifteen minutes before","robustly stimulated food intake at 4 hours, 8 hours, and 24 hours; also recorded: increased food intake following both saline and CNO injections at all time-points"
same,Entries to the open arms,MC3R [1],trended towards being higher; also recorded: entered the open arms more frequently
same,distance traveled in the open arms,MC3R [1],increasing distance traveled in the open arms; also recorded: traveled more distance in the open arms
same,latency to enter the open arms,MC3R [1],decreasing latency to enter the open arms; also recorded: entered the open arms faster
same,total distance traveled,MC3R [1],increased total distance traveled in the elevated plus maze
same,distance traveled,MC3R [2],without significantly effecting total distance traveled; also recorded: did not affect distance traveled
same,latency to eat,MC3R [2],decreased latency to feed; also recorded: reduced latency to eat
same,total time eating,MC3R [2],increased total time eating
same,weight gain,MC3R [3]; 3 days of treatment,8%
same,24 h food intake,"MC3R [3]; PG990 series of peptides, route not given in the sentence",increases 24 h food intake
same,stimulation of food intake,"MC3R [3]; central injection (i.c.v.), 5 μg",~50%
same,24-hour food intake compared with chemogenetic (DREADD) neuron activation,MC3R [3]; i.c.v. PG992 vs CNO/hM3Dq,increased 24-hour food intake to a greater extent than chemogenetic activation of AgRP neurons; also recorded: even more potent inducer of 24 h food intake than DREADD activation of MC3R ARC neurons; also recorded: produced a greater change in 24-hour food intake than AgRP neuron activation
same,Feeding in response to central administration,"MC3R [3]; i.c.v., 5 ug in 500 nl DMSO, vs vehicle",acutely stimulated feeding at all measured time-points
same,Food intake at 4 and 24 hours,"MC3R [3]; i.c.v., 5 ug, single injection",increased food intake at both 4 hours and 24 hours post injection
same,increase in body weight each treatment day,MC3R [3]; once daily i.c.v. injections,2-3%
same,Daily food intake,MC3R [3]; once daily i.c.v. injections (5 ug),increased daily 24-hour food intake on each day of treatment
same,duration of food intake stimulation,MC3R [3]; single i.c.v. injection,at least 24 hours
same,distance traveled in the center,"MC3R [4]; 5 ug, i.c.v.",increased the distance traveled in the center; also recorded: increased distance traveled in the center
same,entries in the center,"MC3R [4]; 5 ug, i.c.v.",increased entries to the center; also recorded: increased distance traveled in the center and entries in the center
same,latency to enter the center,"MC3R [4]; 5 ug, i.c.v.",decreased the latency to enter the center; also recorded: reduced latency to enter the center of the arena
same,total distance traveled,"MC3R [4]; 5 ug, i.c.v.",Total distance traveled was also increased
same,anxiolytic activity,"MC3R [4]; ICV, elevated plus maze, and novelty suppressed feeding assay",clear anxiolytic activity
